This is an account of results in patent US20150259721A1.

This experiment deals with Her2 (UniProt P04626). Put plainly: cell-based or functional assay.

As to 4D5-AzAb (HC274)-AF (antibody), the EC50 nM, concentration of the drug to kill 50% of the tumor cells in vitro, HCC1954 cells amounted to 0.0212 nM; the EC50 nM, concentration of the drug to kill 50% of the tumor cells in vitro, SKOV3 cells came out at 0.187 nM; the EC50 nM, in vitro potency (cytotoxicity), SKBR3 cells stood at 0.0074 nM; the EC50 nM, in vitro potency (cytotoxicity), SKOV3 cells turned out to be 0.019 nM.

Consider 4D5-AzAb (HC274: LC81)-AF (antibody), for which the EC50 nM, concentration of the drug to kill 50% of the tumor cells in vitro, HCC1954 cells is 0.0149 nM and the EC50 nM, concentration of the drug to kill 50% of the tumor cells in vitro, SKOV3 cells came to 0.0523 nM.

The substance 4D5-AzAb (HC359)-AF (antibody) returned an EC50 nM, concentration of the drug to kill 50% of the tumor cells in vitro, HCC1954 cells of 0.0241 nM; an EC50 nM, concentration of the drug to kill 50% of the tumor cells in vitro, PC3 cells of 1.33 nM; an EC50 nM, concentration of the drug to kill 50% of the tumor cells in vitro, SKOV3 cells of 0.16 nM.

4D5-AzAb (LC81)-AF (antibody): the EC50 nM, concentration of the drug to kill 50% of the tumor cells in vitro, HCC1954 cells amounted to 0.0437 nM; the EC50 nM, concentration of the drug to kill 50% of the tumor cells in vitro, PC3 cells stood at 1.13 nM; the EC50 nM, concentration of the drug to kill 50% of the tumor cells in vitro, SKOV3 cells is 0.201 nM.
